Positions count from the first letter of the chain named.
Tests used:
[1] = target: T1, human C4b (human) (UniProt P0C0L4)
T1 sequence: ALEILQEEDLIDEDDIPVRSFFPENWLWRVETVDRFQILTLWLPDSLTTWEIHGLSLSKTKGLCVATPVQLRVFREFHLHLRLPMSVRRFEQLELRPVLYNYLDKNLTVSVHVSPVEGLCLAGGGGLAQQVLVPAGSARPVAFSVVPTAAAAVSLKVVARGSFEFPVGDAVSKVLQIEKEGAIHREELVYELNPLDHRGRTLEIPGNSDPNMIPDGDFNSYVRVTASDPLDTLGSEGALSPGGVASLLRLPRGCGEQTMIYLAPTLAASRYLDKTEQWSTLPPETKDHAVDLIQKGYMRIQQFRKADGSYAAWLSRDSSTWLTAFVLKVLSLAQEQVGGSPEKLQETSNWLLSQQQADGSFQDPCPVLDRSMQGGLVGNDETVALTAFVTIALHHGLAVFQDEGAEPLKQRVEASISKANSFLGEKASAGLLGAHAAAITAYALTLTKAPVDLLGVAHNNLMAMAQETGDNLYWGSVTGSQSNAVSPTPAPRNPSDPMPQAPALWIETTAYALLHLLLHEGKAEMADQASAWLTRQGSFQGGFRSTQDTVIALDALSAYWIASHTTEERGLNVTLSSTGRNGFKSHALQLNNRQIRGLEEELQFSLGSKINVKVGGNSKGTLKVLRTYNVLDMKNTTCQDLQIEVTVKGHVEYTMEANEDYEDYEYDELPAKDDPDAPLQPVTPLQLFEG

[2] = target: soluble human C3b (human) (UniProt P01024)
[3] = target: T1, human C4b (human); remark: listed apart in the source
[4] = target: soluble human C3b (human) (UniProt P01024); remark: listed apart in the source
[5] = target: T2, human C4b (human) (UniProt P0C0L5)
T2 sequence: T1 sequence with A151T, D317G, P364L, C365S, L368I, D369H, N420S, V451A, L454R, S530A

Substance | C4b Screen Ref Fold (fold of reference) [1] | iC3b Screen Ref Fold (fold of reference) [2] | C4c EC50 [3] [nM] | C4c EC50 (nM) [3] [nM] | C4b Screen Ref Fold (fold of CFI-HSA wild type) [1] | iC3b Screen Ref Fold (fold of CFI-HSA wild type) [2] | further results
CFI-HSA variant G406D; Y408L; N531G (enzyme) | 5.16 | 0.93 | 178 |  |  |  | 
CFI-HSA variant D425Y (enzyme) |  |  | 112 |  |  |  | iC3b EC50 [4]: 14.3 nM
CFI-HSA variant R365A (enzyme) |  |  |  | > 1000 |  |  | iC3b EC50 [4]: 64.3 nM
CFI-HSA variant E457G; E461Q; F464Y; N531G; R557K (enzyme) |  |  |  | 10.6 | 4.54 | 2.17 | 
CFI-HSA variant Y408L; E416A; E457G; E461Q; R462K; N531G (enzyme) |  |  |  | 17.8 | 4.04 | 1.63 | 
CFI-HSA variant Y408F; E457G; E461Q; F464Y; N531G (enzyme) |  |  |  | 15.1 | 4.43 | 1.81 | 
CFI-HSA variant K14A; Y20F; D26A; R35A; E38A; L304G; P305G; K306G; L307G; S308G (enzyme) | 4.19 | 0.04 |  | > 1000 |  |  | 
CFI-HSA variant E457G; E461Q; F464Y; E530Y; N531G; P558S (enzyme) |  |  |  | 32.4 | 4.03 | 2.44 | 
CFI-HSA variant N404G (enzyme) | 0.53 | 0.94 | 310 |  |  |  | iC3b Screen Ref Fold (fold vs CFI-HSA wild type) [2]: 0.68; C4b Screen Ref Fold (fold vs CFI-HSA wild type) [5]: 0.31
CFI-HSA variant G406D; Y408L; N531G; P535A (enzyme) | 5.44 | 0.96 | 102 |  |  |  | 
CFI-HSA variant E461T (enzyme) | 3.24 | 1.53 |  | 125 |  |  | 
CFI-HSA variant G406K (enzyme) | 0.77 | 1.28 | 183 |  |  |  | 
CFI-HSA variant Y408F; E416A; E457G; E461Q; R462K; N531G (enzyme) |  |  |  | 11.5 | 4.51 | 1.99 | 
CFI-HSA variant T346R; Y408L; N531G (enzyme) | 3.42 | 0.93 | 204 |  |  |  | 
CFI-HSA variant Y408F; E457G; E461Q; R462K; N531G (enzyme) |  |  |  | 14.4 | 4.58 | 1.9 | 
CFI-HSA variant E457G; E461Q; R462K; F464Y; E530Y; N531G; P558S (enzyme) |  |  |  | 30 | 4.51 | 2.69 | 
CFI-HSA variant E457P (enzyme) | 0.01 | 0.07 |  | > 1000 |  |  | 
CFI-HSA variant P384A (enzyme) | 0.29 | 0.03 | > 1000 |  |  |  | iC3b Screen Ref Fold (fold vs CFI-HSA wild type) [2]: 0.03; C4b Screen Ref Fold (fold vs CFI-HSA wild type) [5]: 0.07
CFI-HSA variant G406D; N531G (enzyme) | 6.15 | 0.83 | 124 |  |  |  | 
CFI-HSA variant Y408F; E457G; E461Q; N531G (enzyme) |  |  |  | 51 | 4.63 | 1.42 | 
CFI-HSA variant Y408L; E457G; E461Q; R462K; E530F; N531G; P558S (enzyme) |  |  |  | 148 | 3.96 | 1.81 | 

Source: US20230038638A1, “COMPLEMENT FACTOR I-RELATED COMPOSITIONS AND METHODS” (published 2023)
